Experimental findings from patent publication US10227575B2, “Multi-domain enzymes having cutinase activity, compositions comprising same and uses thereof” (OZYMES, priority 2015, dated 2019) are described below.

Marks after values point to notes of the source that are not given here.

One data set is described as follows: Temperature optimum. The settings on record: for Relative activity at temperature: highest activity set to 100%. The data set is classed as biochemical. As for the experimental part:
For estimation of the temperature optimum, buffer containing pNP-palmitate (see esterase assay in Example 20.1) was pre-incubated to reach the desired temperature, enzyme was then added, and the formation of pNP was assayed. For this experiment, Tris/HCl buffer was replaced with sodium phosphate buffer (50 mM, pH 8.0) to avoid a pH shift at the different temperatures.

Data set [1] is described as follows: Thermostability of purified enzymes. The conditions noted are these: 10 min. The data set is classed as physicochemical. As for the experimental part: Enzyme thermostability was studied over a temperature range of 50-95° C. using the purified enzyme preparations. Aliquots were incubated at the desired temperature for 5, 10, 30, 60, and 120 minutes, chilled on ice, and assayed for remaining activity towards p-NP-palmitate (pNPP) at room temperature.

B1: Cf-TP: chimeric variant: catalytic and polymer binding domains of CfCUT with T/P-rich linker domain of KrCUT, SEQ ID NO: 29 (protein)
chain: APACPDVELVFARGTGEAAGLGIVGRPLERALAAELPGRTVVATAVDYAASSSQASAGPGSGDMVAKVRSRAAACPGTQFVLGGYSQGATVTDLALGIRTGVTAGTALPEDLAARVAAVVVYGNPLGLTRRTIAQAAPAFATRTVEYCNAGDPVCEPGGGRFTAHITYATNGTVLEGARFAAARVTAAGTPTTPTPTPTPTPVPTTCVTASSLQHVRDGRAYPLWMRTYARGSGDPLGVLSSRTVVSLQADGTDTWRKVAAC
modifications: YebF carrier; Cf-TP variant
As to B1, in “Temperature optimum”, the “Temp. opt. (° C.)” value turned out to be 35 °C. Also, the “Relative activity at temperature” value in the data set “Temperature optimum” (20 ° C.) was 54 ± 5%; in “Temperature optimum” (25 ° C.) it was 84 ± 9%; in the data set “Temperature optimum” (30 ° C.), 95 ± 5%; in the data set “Temperature optimum” (35 ° C.) it was 100* %; in “Temperature optimum” (40 ° C.), 89 ± 6%; in “Temperature optimum” (45 ° C.) it was 72 ± 7%. In addition, the “Relative activity at temperature” value in “Temperature optimum” (50 ° C.) stood at 37 ± 6%; in “Temperature optimum” (55 ° C.), 9 ± 1%. In addition, in data set [1], the “Relative activity remaining (thermostability)” value is recorded as 43 ± 3%.

B2: Am-Kr: chimeric variant: AmCUT fused to the T/P-rich linker domain and polymer binding domain of KrCUT, SEQ ID NO: 27 (protein)
chain: ACSDLEIVFARGSGEAPGLGITGTPLVSDVKSALSSASVSSYAVDYAASYDQTSAGPGATDMSNHIKSTAAACPDTKFAIGGYSQGASVTDIAIGIRTYLGTGQTIPTELAPRVVAVIAFGNPLGLYGQTIKTASPTYGPKSLEFCNRGDNVCGGTGTGPGYGHLSYARDGSVDQAAAFIAKQYNASAGTPTTPTPTPTPTPVPTTCVRDSTRDHVAADRAVSLYGRAYARGSRDSLGATSSYNVVSLQQVEGGWRLVTAC
modifications: YebF carrier; Am-Kr variant
As to B2, the “Temp. opt. (° C.)” value in the data set “Temperature optimum” was found to be 45 °C. Besides, the “Relative activity at temperature” value in “Temperature optimum” (20 ° C.) is given as 50 ± 2%; in the data set “Temperature optimum” (25 ° C.), 61 ± 2%; in the data set “Temperature optimum” (30 ° C.), 69 ± 2%; in the data set “Temperature optimum” (35 ° C.), 78 ± 1%; in “Temperature optimum” (40 ° C.), 87 ± 2%; in “Temperature optimum” (45 ° C.), 100* %. Also, the “Relative activity at temperature” value in the data set “Temperature optimum” (50 ° C.) is 81 ± 10%; in “Temperature optimum” (55 ° C.), 37 ± 5%; in “Temperature optimum” (60 ° C.), 9 ± 1%.

B3: CfCUT: mature wild-type cutinase from Cellulomonas flavigena, SEQ ID NO: 28 (protein, listed as Cellulomonas flavigena)
chain: APACPDVELVFARGTGEAAGLGIVGRPLERALAAELPGRTVVATAVDYAASSSQASAGPGSGDMVAKVRSRAAACPGTQFVLGGYSQGATVTDLALGIRTGVTAGTALPEDLAARVAAVVVYGNPLGLTRRTIAQAAPAFATRTVEYCNAGDPVCEPGGGRFTAHITYATNGTVLEGARFAAARVTAPAPTPTPGPTGTPAPVPSAEPTPAPGDTCVTASSLQHVRDGRAYPLWMRTYARGSGDPLGVLSSRTVVSLQADGTDTWRKVAAC
Take B3: in “Temperature optimum”, the “Temp. opt. (° C.)” value stood at 25 °C. Besides, the “Relative activity at temperature” value in “Temperature optimum” (20 ° C.) was 69 ± 2%; in “Temperature optimum” (25 ° C.), 100* %; in “Temperature optimum” (30 ° C.), 63 ± 7%; in “Temperature optimum” (35 ° C.) it was 45 ± 5%; in “Temperature optimum” (40 ° C.) it was 38 ± 8%; in “Temperature optimum” (45 ° C.), 1%.
